# Experimental data published in patent US20250382384A1 (BEONE MEDICINES I, published 2025).
# B1: huBG219P-Bz0 (antibody, IgG1, V domains shown)
# VH: EVQLLESGGGLVQPGGSLRLSCAASGFTFNDYIMSWVRQAPGKGLEWVATVSSGGDNTYYPDSVKGRFTISRDNSKNTLYLQMNSLRAEDTAVYYCTRYGGLGAMDYWGQGTLVTVSS
# VL: DIQMTQSPSSLSASVGERVTITCRASGNIHNYLTWYQQKPGKSPKLLVYNAKTLADGVPSRFSGSGSGPDYTLTISSLQPEDFATYYCQHFWSVPYTFGQGTKLEIK
# notes: human wild-type IgG1 / kappa
# B2: huBG138P-Hz1 (antibody, V domains shown)
# VH: QVQLVQSGAEVKKPGASVKVSCKASGYTFTTYTMHWVRQAPGQRLEWMGYINPGSDYTHYNQKFKDRVTITADTSASTAYMELSSLRSEDTAVYYCARQGNYAAYYFDYWGQGTLVTVSS
# VL: DIQMTQSPSSLSASVGDRVTITCRASGNIHNFLVWYQQKPGKVPKLLIYNAKTLTSGVPSRFSGSGSGTDYTLTISSLQPEDVATYYCQNFWNVPFTFGQGTKLEIK
# notes: humanized; constant regions not restated (IgG1/Ckappa vector used for the first round)
# B3: huBG138P-Hz4 (antibody, V domains shown)
# VH: QVQLVQSGAEVKKPGASVKVSCKASGYTFTTYTMHWVRQAPGQGLEWMGYINPGSDYTHYNQKFKDRVTITADKSASTAYMELSSLRSEDTAVYYCARQGNYAAYYFDYWGQGTLVTVSS
# VL: DIQMTQSPSSLSASVGDRVTITCRASGNIHNFLVWYQQKPGKSPKLLIYNAKTLTSGVPSRFSGSGSGTQYTLTISSLQPEDVATYYCQNFWNVPFTFGQGTKLEIK
# notes: humanized; constant regions not restated
# B4: huBG138P-Hz3 (antibody, V domains shown)
# VH: QVQLVQSGAEVKKPGASVKVSCKASGYTFTTYTMHWVRQAPGQGLEWMGYINPGSDYTHYNQKFKDRVTITADKSASTAYMELSSLRSEDTAVYYCARQGNYAAYYFDYWGQGTLVTVSS
# VL: DIQMTQSPSSLSASVGDRVTITCRASGNIHNFLVWYQQKPGKVPKLLIYNAKTLTSGVPSRFSGSGSGTDYTLTISSLQPEDVATYYCQNFWNVPFTFGQGTKLEIK
# notes: as for B3
# B5: scFv3-20P (scFv)
# scFv: QVQLVQSGAEVKKPGASVKVSCKASGYTFTNYWINWVRQAPGQGLEWMGEIDPSDAYTNNNQKFQGRVTMTVDTSTSTAYMELSSLRSEDTAVYYCARGRRTGFAYWGQGTLVTVSSGGGGSGGGGSGGGGSGGGGSDIQMTQSPSSLSASVGDRVTITCRASENIYSNLAWYQQKPGKAPKLLIYAATNLADGVPSRFSGSGSGTDYTLTISSLQPEDFATYYCQHFWGTPYTFGQGTKLEIKHHHHHH
# notes: Humanized BG346P scFv; His tag from the stated format of the BG346P scFv constructs; also called BG346P-scFv3-20P
# Experiments:
# [1] = target: T1, native human MUC1 on tumour cell lines (human, UniProt P15941 24-1255); test: FACS on live ZR-75 cells
# T1 construct: whole, on cells; also called native MUC1; ZR-75
# T1 sequence (P15941 24-1255): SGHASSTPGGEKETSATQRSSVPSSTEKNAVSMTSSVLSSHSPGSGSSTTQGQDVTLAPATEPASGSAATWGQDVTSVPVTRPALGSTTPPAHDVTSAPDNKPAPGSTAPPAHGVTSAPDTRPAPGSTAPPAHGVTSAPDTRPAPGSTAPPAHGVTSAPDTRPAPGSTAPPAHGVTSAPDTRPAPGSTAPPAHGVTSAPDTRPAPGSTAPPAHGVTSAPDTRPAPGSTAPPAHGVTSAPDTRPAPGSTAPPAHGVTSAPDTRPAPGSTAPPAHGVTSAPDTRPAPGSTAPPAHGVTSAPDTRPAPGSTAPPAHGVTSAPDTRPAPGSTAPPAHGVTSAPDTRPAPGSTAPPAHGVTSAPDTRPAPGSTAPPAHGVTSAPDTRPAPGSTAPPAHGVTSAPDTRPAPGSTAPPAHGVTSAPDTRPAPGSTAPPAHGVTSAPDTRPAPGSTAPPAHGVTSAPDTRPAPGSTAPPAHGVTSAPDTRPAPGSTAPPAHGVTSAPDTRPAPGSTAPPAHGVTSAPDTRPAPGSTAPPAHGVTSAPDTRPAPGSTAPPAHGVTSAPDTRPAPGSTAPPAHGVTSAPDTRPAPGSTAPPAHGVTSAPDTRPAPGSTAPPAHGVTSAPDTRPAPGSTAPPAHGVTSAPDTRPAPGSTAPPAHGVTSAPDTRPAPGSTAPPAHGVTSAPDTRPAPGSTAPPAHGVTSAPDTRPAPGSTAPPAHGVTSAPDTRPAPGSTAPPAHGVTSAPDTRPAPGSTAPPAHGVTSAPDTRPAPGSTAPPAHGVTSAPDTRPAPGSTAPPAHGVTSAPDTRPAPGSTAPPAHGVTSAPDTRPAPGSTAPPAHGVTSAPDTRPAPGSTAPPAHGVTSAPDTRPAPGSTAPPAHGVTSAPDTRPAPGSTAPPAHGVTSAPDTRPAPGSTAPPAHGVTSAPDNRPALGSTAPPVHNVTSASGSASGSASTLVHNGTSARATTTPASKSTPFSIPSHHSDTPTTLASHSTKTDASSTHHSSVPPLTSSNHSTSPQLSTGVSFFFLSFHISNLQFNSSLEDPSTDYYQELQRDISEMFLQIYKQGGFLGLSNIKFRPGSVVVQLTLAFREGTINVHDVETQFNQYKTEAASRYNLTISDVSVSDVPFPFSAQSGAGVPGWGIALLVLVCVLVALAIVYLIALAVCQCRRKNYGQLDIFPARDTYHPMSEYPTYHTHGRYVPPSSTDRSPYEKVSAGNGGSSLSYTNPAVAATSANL
# [2] = target: T2, full-length human MUC1 on stably transfected cells (human, UniProt P15941 24-1255); test: FACS (iQue3) on HEK293-hMUC1 cells
# T2 construct: also called HEK293/human MUC1; HEK293-hMUC1
# T2 sequence (P15941 24-1255 limits assumed): as the sequence (P15941 24-1255) above
# MUC1-SEA-mIgG2a = target: T3, MUC1-SEA-mIgG2a (human; mouse, UniProt P15941 1036-1155); test: SPR (Biacore 8K, 25 C), MUC1-SEA-mIgG2a captured by anti-mouse Fc, scFv analyte
# T3 construct: also called huMUC1-SEA-mIgG2a; human MUC1-mFc; not shown: Fc domain of mouse IgG2a fused to the C-terminus of the SEA domain
# T3 sequence: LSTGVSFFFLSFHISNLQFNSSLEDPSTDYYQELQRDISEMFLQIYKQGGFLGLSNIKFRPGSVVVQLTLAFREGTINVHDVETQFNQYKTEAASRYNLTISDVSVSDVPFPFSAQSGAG
# [3] = target: T2, full-length human MUC1 on stably …; test: FACS on HEK293-MUC1 cells, anti-His detection
binder,measurement,setting,value
B1,EC50,[1],20.9 nM
B2,EC50 (read off the curve),[2],~5 nM
B3,EC50 (read off the curve),[2],~3 nM
B4,EC50 (read off the curve),[2],~5 nM
B5,Kd,MUC1-SEA-mIgG2a,67.1 nM
same,koff,MUC1-SEA-mIgG2a,0.0202 s⁻¹
same,kon,MUC1-SEA-mIgG2a,301000 M⁻¹ s⁻¹
same,EC50,[3],16.1 nM
